Among the data in patent publication US20220195407, “OPTIMIZATION OF ENGINEERED MEGANUCLEASES FOR RECOGNITION SEQUENCES” (Precision BioSciences, Inc., published 2022) are activity values, retold here.

What all share (assay): cell_activity; CHO iGFFP reporter
For one series, the target named is T1, LOX 3-4m.893 (artificial (I-CreI derived)).
T1 chain: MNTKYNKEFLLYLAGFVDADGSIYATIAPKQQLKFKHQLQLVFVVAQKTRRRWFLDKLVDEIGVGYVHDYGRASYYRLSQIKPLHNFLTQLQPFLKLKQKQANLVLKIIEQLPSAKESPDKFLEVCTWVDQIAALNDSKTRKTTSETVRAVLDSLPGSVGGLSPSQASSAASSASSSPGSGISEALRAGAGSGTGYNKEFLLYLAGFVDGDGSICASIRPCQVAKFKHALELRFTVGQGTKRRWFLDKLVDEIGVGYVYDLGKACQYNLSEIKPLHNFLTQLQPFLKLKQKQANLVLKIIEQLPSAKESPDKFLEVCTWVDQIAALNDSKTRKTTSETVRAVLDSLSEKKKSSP
The text has this: (§1) A CHO cell reporter system (see WO/2012/167192, FIG. 3) was used to determine whether the engineered meganucleases generated in these studies could recognize and cleave the modified LOX 3-4 recognition sequences in Table 87. To perform the assay, a pair of CHO cell reporter lines were produced, which carried a non-functional Green Fluorescent Protein (GFP) gene expression cassette integrated into the genome of the cell. The GFP gene in each cell line was interrupted by a pair of recognition sequences such that intracellular cleavage of either recognition sequence by a meganuclease would stimulate a homologous recombination event resulting in a functional GFP gene. In both cell lines, one of the recognition sequences was derived from the LOX 3-4 recognition sequence (i.e., those sequences disclosed in Table 87), and the second recognition sequence was specifically recognized by a control meganuclease called “CHO 23/24.” CHO reporter cells comprising a recognition sequence derived from the LOX 3-4 recognition sequence and the CHO 23/24 recognition sequence are referred to herein as “test cells.”
(§2) Novel engineered meganucleases derived from the LOX 3-4x.109 meganuclease were prepared by making amino acid substitutions at one or more positions in the first subunit and one or more positions in the second subunit. These engineered meganucleases were then evaluated for cleavage of the LOX 3-4 recognition sequence, which normally comprises an ACAT center sequence (SEQ ID NO: 44) in the CHO reporter assay according to Example 1.

The next series addresses T2, LOX 3-4m.925 (artificial (I-CreI derived)).
T2 chain: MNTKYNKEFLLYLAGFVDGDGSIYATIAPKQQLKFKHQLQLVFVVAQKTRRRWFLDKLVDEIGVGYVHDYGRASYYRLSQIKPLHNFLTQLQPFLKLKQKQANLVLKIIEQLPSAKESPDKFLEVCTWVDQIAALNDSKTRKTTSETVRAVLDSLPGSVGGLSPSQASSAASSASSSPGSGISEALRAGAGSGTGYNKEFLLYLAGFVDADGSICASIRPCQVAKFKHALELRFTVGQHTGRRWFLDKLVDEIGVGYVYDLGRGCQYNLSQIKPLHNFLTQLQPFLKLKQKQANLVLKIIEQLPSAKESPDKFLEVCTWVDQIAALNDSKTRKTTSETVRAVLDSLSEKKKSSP
Description: as §1, §2

The target in the next series is T3, LOX 3-4m.949 (artificial (I-CreI derived)).
T3 chain: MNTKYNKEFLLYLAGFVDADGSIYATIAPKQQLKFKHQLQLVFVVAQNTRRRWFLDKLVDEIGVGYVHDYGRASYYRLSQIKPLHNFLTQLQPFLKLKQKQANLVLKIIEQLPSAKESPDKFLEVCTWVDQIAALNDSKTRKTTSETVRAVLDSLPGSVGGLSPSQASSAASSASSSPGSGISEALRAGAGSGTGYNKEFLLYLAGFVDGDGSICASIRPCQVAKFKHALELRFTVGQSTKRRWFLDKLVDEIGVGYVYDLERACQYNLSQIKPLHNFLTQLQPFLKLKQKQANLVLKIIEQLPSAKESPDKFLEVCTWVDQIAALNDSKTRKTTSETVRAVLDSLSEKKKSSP
Description: as §1, §2

A further series deals with T4, LOX 3-4m.869 (artificial (I-CreI derived)).
T4 chain: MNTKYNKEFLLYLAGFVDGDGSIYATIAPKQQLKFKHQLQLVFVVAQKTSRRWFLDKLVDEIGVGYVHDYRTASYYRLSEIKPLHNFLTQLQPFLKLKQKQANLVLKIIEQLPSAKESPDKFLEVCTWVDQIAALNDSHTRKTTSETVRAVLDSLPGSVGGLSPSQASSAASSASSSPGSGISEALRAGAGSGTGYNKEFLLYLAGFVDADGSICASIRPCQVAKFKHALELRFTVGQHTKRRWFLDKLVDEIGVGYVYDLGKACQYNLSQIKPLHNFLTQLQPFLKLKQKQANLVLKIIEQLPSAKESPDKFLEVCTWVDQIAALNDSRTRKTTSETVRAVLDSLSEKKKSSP
Description: as §1, §2

The target of the next series is T5, LOX 3-4m.509 (artificial (I-CreI derived)).
T5 chain: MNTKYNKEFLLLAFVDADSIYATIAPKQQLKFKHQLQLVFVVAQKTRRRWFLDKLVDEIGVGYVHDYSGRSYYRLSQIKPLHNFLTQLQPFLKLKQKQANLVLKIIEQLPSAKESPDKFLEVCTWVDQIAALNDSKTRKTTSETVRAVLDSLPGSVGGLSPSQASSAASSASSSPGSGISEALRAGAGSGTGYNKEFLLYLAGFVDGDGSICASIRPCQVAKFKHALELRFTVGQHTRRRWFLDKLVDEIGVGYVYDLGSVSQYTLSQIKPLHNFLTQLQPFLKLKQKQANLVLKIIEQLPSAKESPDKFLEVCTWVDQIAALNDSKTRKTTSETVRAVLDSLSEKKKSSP
Description: as §1
(§3) Novel engineered meganucleases derived from the LOX 3-4x.109 meganuclease were prepared by making amino acid substitutions at one or more positions in the first subunit and one or more positions in the second subunit. The N-terminal subunit recognizes the reverse complement of the AG portion of the four base pair center sequence, which is CT, and the C-terminal subunit recognizes the GC portion of the […] center sequence. These engineered meganucleases were then evaluated for cleavage of the LOX 3-4 recognition sequence modified to have a GCAG center sequence (SEQ ID NO: 326) in the CHO reporter assay according to Example 1. The substitutions in each subunit are provided in Tables 180 and 181, respectively.

The next series has as its target T6, LOX 3-4m.524 (artificial (I-CreI derived)).
T6 chain: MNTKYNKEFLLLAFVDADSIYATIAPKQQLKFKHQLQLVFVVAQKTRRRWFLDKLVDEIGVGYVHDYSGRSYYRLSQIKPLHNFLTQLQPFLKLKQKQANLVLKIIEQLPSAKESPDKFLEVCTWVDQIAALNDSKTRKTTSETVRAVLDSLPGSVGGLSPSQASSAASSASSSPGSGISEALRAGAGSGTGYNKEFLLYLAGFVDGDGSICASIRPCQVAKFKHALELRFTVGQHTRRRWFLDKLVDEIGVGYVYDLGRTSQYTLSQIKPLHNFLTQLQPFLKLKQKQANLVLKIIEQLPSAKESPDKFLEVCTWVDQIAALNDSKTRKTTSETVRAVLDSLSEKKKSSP
Description: as §1, §3

A further series has as its target T7, LOX 3-4m.494 (artificial (I-CreI derived)).
T7 chain: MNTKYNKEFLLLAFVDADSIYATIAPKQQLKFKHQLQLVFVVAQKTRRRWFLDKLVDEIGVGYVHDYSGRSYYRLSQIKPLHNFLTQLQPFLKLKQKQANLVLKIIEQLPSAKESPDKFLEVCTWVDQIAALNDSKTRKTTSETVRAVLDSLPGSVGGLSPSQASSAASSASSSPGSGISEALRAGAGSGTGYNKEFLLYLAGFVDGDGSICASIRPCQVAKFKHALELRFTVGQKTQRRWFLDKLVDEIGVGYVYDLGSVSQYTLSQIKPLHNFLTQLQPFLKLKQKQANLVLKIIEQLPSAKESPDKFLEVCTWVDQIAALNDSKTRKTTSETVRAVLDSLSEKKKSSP
Description: as §1, §3

For a further series, the target named is T8, LOX 3-4m.1044 (artificial (I-CreI derived)).
T8 chain: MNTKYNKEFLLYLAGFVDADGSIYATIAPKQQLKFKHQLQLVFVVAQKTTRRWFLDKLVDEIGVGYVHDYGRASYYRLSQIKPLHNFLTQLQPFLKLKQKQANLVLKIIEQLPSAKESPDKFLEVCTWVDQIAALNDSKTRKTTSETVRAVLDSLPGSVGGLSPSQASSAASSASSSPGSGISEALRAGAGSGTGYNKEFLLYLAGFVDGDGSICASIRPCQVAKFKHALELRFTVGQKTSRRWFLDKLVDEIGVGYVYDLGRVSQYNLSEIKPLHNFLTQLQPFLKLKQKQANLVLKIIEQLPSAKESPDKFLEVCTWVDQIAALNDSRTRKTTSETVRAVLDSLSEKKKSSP
Description: as §1
(§4) Novel engineered meganucleases derived from the LOX 3-4x.109 meganuclease were prepared by making amino acid substitutions at one or more positions in the first subunit and one or more positions in the second subunit. These engineered meganucleases were then evaluated for cleavage of the LOX 3-4 recognition sequence modified to have an ACGA center sequence (SEQ ID NO: 68) in the CHO reporter assay according to Example 1.

The target of the next series is T9, LOX 3-4m.956 (artificial (I-CreI derived)).
T9 chain: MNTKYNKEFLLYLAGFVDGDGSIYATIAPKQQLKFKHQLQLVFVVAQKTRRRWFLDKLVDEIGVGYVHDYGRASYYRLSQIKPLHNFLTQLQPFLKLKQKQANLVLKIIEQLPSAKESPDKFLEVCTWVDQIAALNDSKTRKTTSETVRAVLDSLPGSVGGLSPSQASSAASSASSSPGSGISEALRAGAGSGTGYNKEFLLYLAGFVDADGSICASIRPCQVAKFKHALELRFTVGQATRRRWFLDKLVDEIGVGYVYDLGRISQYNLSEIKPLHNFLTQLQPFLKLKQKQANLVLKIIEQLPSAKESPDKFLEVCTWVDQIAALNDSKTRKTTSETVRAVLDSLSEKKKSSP
Description: as §1, §4

In another series the target is T10, LOX 3-4m.1036 (artificial (I-CreI derived)).
T10 chain: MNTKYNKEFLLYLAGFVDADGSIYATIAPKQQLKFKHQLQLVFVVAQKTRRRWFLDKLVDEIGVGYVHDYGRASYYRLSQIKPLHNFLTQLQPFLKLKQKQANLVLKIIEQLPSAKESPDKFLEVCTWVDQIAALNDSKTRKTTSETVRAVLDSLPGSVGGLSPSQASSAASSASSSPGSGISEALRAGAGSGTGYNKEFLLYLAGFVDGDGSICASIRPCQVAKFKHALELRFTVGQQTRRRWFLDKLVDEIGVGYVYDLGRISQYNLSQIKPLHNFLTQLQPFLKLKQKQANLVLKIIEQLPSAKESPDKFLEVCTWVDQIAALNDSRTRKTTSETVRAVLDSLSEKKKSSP
Description: as §1, §4

Another series has as its target T11, LOX 3-4m.1013 (artificial (I-CreI derived)).
T11 chain: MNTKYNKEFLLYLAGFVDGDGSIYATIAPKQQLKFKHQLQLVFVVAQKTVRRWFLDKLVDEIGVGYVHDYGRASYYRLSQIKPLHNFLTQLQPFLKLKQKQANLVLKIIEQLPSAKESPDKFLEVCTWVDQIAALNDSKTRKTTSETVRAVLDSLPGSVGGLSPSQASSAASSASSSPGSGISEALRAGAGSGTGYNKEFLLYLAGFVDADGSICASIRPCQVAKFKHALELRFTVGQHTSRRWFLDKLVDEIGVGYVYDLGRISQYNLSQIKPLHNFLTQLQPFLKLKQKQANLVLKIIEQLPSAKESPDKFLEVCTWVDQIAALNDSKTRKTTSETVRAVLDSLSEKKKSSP
Description: as §1, §4

B1: LOX 3-4 ACAT (native LOX 3-4 site, SEQ 6) (dsDNA)
DNA 1: GTATAGCATACATTATACGAAG
DNA 2: CTTCGTATAATGTATGCTATAC
As for B1, the activity with LOX 3-4m.893 stood at 13.1 % GFP; in the series with LOX 3-4m.925 it was 12.2 % GFP; with LOX 3-4m.949, 12.5 % GFP; with LOX 3-4m.869, 11.2 % GFP.

B2: LOX 3-4 GCAG (dsDNA)
DNA 1: GTATAGCATGCAGTATACGAAG
DNA 2: CTTCGTATACTGCATGCTATAC
As for B2, the results for the activity in the series with LOX 3-4m.509, with LOX 3-4m.524 and in the series with LOX 3-4m.494 were 13.4 % GFP, 16.6 % GFP and 13.8 % GFP, respectively.

B3: LOX 3-4 ACGA (dsDNA)
DNA 1: GTATAGCATACGATATACGAAG
DNA 2: CTTCGTATATCGTATGCTATAC
As for B3, the activity was 5.8 % GFP with LOX 3-4m.1044, 4.7 % GFP in the series with LOX 3-4m.956, 5 % GFP with LOX 3-4m.1036 and 1.7 % GFP with LOX 3-4m.1013.
